# The nanobody polyreactivity screen of Harvey et al. (2022)
# Experiment: yeast display, Sf9 membrane polyspecificity reagent, FACS + sequencing; frameworks hold sequencing errors
# How it was run: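 Galactose-induced (36–48 hours) yeast carrying a synthetic nanobody display library were exposed to 10% biotinylated, detergent-solubilized Sf9 membrane reagent at 4 °C for 1 hour. FACS followed streptavidin microbead enrichment, using low and high (top ~1%) gates for expression (anti-HA) and reagent binding (streptavidin). Colony PCR, MiSeq 2 × 250 sequencing and CDR-length filtering followed. Labels for polyreactivity reflect the gate of origin.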
row,Sequence,polyreactivity (PSR sort gate)
1,QVQLVESGGVLVQAGGSPRLSCAASGRTYAYYPMGWYRQAPGKERELVARITRGGSTYYADSVKGRFTISRDNAKNSVYLQMYSLIPDDTAVYYCNRYQWQHYTSVYLRTGSDYWGQGTQVTVSS,high polyreactivity
2,QVQLVESGGVLVQAVASLRVSCAASGRILDYNTMGWYRPAPGKERELVAAISFSGGRTYYADSVKGRFTISRDNAKNTFYLQMNSLKPEDTAVYYCAATVGAASRYYYWGQGSQVTVSS,high polyreactivity
3,QVQLVESGGVLVQSGGSLRLSCAASGITLSRYAMGWYRQAPGKERELVAAISRRGGSTYYADSVKGRFTISRDNAKNSVYLQLNSLKPEDTAVDYCAATRYASLSDSGFNYWGQGTQVTVSS,high polyreactivity
4,QVQLVESGGVLVQSGGSLRLSCAASGLIFTWNAMGWYRQAPGKERELVAPISTGGSTSYADSVKGRFTISRDNAKNTVYLQMNSLKPEDTAVYYCARDSSIWSHGSWYDYWGQGTHVTVSS,low polyreactivity
5,QVQLVESGKGLVQAGGILRLSCAASGLIFGFNAMGWYRQAPGKERELVAAIYGSGGTTYYADSVKGRFTISRDNAKNTVYLQMNSLKPEDTAVYYCAGEYIYNVQFSWPKTPAFDYWGQGTLVTVSS,low polyreactivity
6,QVQLVESGKGLVQAGGSLRLSCAASGITITIYAMGWYRNAPGKERELVAAITWRGGRTYYADSVKGRFTISRDNAKNTVYLQMNSLKPEDTAVYYCNALFGSYPYYWFEYWGHGTQVTVSS,high polyreactivity
7,QVQLVESGRALVQAGGSLRLSCAASGNTFEDYAMGWYRQAPGKERELVAAINSGGSTNYADSVKGRFTISRDNAKNTVYLQLNSLKPEDTAVYYCAAEPGEGFDYWGQGTQVTVSS,low polyreactivity
8,QVQLVESGRCLVQAGCSLRLSCAASGYTFSRSAMGWYRQAPGKERELVAAISWSGGSTYYADSVKGRFTISRDNAKNTVYLQMNSLKPEDTAVYYCIKVRYVSQTAFYYWGQGTQVTVSS,high polyreactivity
9,QVQLVESGRCLVQDGRSLRLSCAASGRTFYGNAMGWYRQAPAKERELVAAISRSGGRTYYADSVKGRFTISRDNAKNTVYLEMISLKPEDTAVYYFASEIRFWYGYYYWGQGTQVTVSS,high polyreactivity
10,QVQLVESGRGIVQAGRSLRLSCPASGRIYPNAIGWYRQAPGKEREFVAAISRSDGSTYYADSVNGRFTISRDNAKNTVYLQMNSLKPEDTAVYYCATDYRFTSRTANFDYWGQGTLVTVSS,low polyreactivity
11,QVQLVESGRGLDQAGGSLRLSCAASASTFAWYDMGCYRHAPGKEREFVAAIDYGGGSTYADSVKGRFTISRDNAKNTVYLQMNSLKPEDTAVYYCNADNWVYLYDYWGQGTQVTVSS,low polyreactivity
12,QVQLVESGRGLFQAGGSLRLSCAASGFTGSYAMGWYRQAPGKVREFVAAISYRGSSTYYADSVKGRFTISRDNAKNTVYLQMNSLKPEDTAVYYCNSVHYVLYGDYDYWGQGTQVTVSS,high polyreactivity
13,QVQLVESGRGLLQAGGSLRLSCASSGGIFPKYAMGWYRQAPGKEREFVASISYRGGSTYYADSVKGRFTISRDNAKNTVYFQMNSLKPDDTAVFYCAKPTYRFYWGDFDYWGQGSQVTVSS,low polyreactivity
14,QVQLVESGRGLVHAGGSLRLSCAASGSIFSPYAMGWYRPAPGKEREFVASITFNGGSTYYADSVKGRFTISRDNAKNTVYLQMTSLKPEDTAVYYCAATYWYDTYWLMDYWGQGTQVTVSS,high polyreactivity
15,QVQLVESGRGLVQAGCSLRLSCAASGSIFEWYAMGWSRQAPGKEMELVADITYNGGSTYYADSVKGRFTISRDNAKNTVYLQMNSLKPEDTAVYYCAADYFVQVPDYYYASEYGYWGQGTQVTVSS,low polyreactivity
16,QVQLVESGRGLVQAGGSLLLSCAASGSTFDVYAMGWYRQAPGKERELVAAIRSSGGSTFYADSVKGRFTISRDNAKNIVYLQMNSLKPEDTAVYYCAARSFVVSGYNKYYEYGDWGQGTQVTVSS,low polyreactivity

row,Sequence,polyreactivity (PSR sort gate)
1,QVQLVESGRGLVQAGGSLRISCAASGITFVFYAMGWYRQAPGKEIELVAAMSWSGGITYYADSVKGRFTISRDNSKNSVYLQMNSLKPEDTAVYYCAATKRQTKYYGGTTDSIRYYWGQGTQVTVSS,low polyreactivity
2,QVQLVESGRGLVQAGGSLRLICAASGNIFWYNAMGWYRQAPGKERELVAAINWSGGSTYYADSVKGRFRISRDNAKNTVYLEMNSLKPEDTAVYYCYAEWYDGDALQWVEYWGQGTQVTVSS,high polyreactivity
3,QVQLVESGRGLVQAGGSLRLICAASRSIFSYNAMGWYRQAPGKERELVAAIRRGGGTYYADSVKGRFTISRDNAKNTVYLQMISLKPEDTAVYYCNAVRGNNFLGDGYWGLGTQVTVSS,high polyreactivity
4,QVQLVESGRGLVQAGGSLRLRCAASGSTFVYNTMGWYRQAPGKEMELVASISSDGNTYYADSVKGRFTISRDNAKNTVYLQMNSLKPEDTAVFYCGARYYYDWRFVGYDYWGQGTQVTVSS,low polyreactivity
5,QVQLVESGRGLVQAGGSLRLRCAASGYTFTRYAMGWYRQAPRKESELVAAISTSGGRTYYSDSEKGRFTISRDNAKNTVYLQMNRLKPEDTAVYSCAAPIRDGRYDYWGQGTQVTVSS,high polyreactivity
6,QVQLVESGRGLVQAGGSLRLRCASSGRTFSSYAMGWSRQAPGKARELVAAITKRGGNTYYADSVKGRFTISRDNAKNTVYLQMNSLNPEDTAVYYCAAGWERFRNYNYWGQVTQVTVSS,high polyreactivity
7,QVQLVESGRGLVQAGGSLRLSCAASGFTCRWYAIGLYRQAPGKERELVAAISRDGSTNYADSVKGRFTISRDNAKNTVYLQMNSLKPEDTSVYYCAKRYYRYPYSQGDYWGQGTQVTVSS,high polyreactivity
8,QVQLVESGRGLVQAGGSLRLSCAASGFTFVWYAMGWYIPAPGKERELVAAISRRGTRTYYADSVKGRFTISRDNAKNTVYLQMNSLKPEDTAVYYCASESILGYDYWGQSTQVTVSS,high polyreactivity
9,QVQLVESGRGLVQAGGSLRLSCAASGIIFYENAMGWYRQAPGKERELVADITQSGGSTYYADSVKGRFTISRDNAKNTVYLQMNSLKPEDTGVYYCAADGYDPYGGLYDYWGQGNQVTVSS,low polyreactivity
10,QVQLVESGRGLVQAGGSLRLSCAASGIIFYENTMGWYRLAPGKERELVASISWSGGRTYNADSVKGRFTISRDNAKNTVDLQMNSLKPEDTAVYYCAGRPYYLYIYNFWGQGTQVTVSS,high polyreactivity
11,QVQLVESGRGLVQAGGSLRLSCAASGIILGRYAKGWYRQAPGKERELVAVITGDGSTTYADSVKGRFTISRDNAKNTVYLQMNSLKPEDTAVYYCNAAVEGSLNGYEYWGQGTQVTVSS,low polyreactivity
12,QVQLVESGRGLVQAGGSLRLSCAASGITFGYYDMGWYRQAPGKERELVAAIDWTGGGTYYADSVKGRFTISRDYAKNTVYLQMNSVKPVDTAVYYCIDHAGGDSGVSYYPEYDYWGQGTQVTLSS,low polyreactivity
13,QVQLVESGRGLVQAGGSLRLSCAASGITFWYYAMGWYRQAPGKERELVASINRSGGSTYADSVKGRFTISRDNAKITVYLQMNSLKPEDTAVYYCAARLYSSVVRYRYGYWGQGTQVTVSS,high polyreactivity
14,QVQLVESGRGLVQAGGSLRLSCAASGITLYTNAMGWYRQAPGKEREFVAGISWNGGRTYYADSVKGRFTISRDNAKNTVYLQMNSLKPEDTAVYYCNARFVYRYKYYYWGQGTQVTVSS,high polyreactivity
15,QVQLVESGRGLVQAGGSLRLSCAASGLTFSKYAMGWYRQAPGKERELVATISRSGGSTYYADSVKGRFTISRDNAKNTVYVQMNSLKPEDTAVYYCAAGSILYGATGEYIYWGQGTQVTVSS,high polyreactivity
